Measured values: paper PMC7909569, “Unique Cellular and Biochemical Features of Human Mitochondrial Peroxiredoxin 3 Establish the Molecular Basis for Its Specific Reaction with Thiostrepton” (Antioxidants, 2021)

Assays:
[1] = target: the molecule itself; assay: SEC-MALS; engineered dimers, reduced (10 mM DTT) or oxidized (1.2 equivalents H2O2), 2 mg/mL, all pH values tested (7.0, 7.5, 8.0)
[2] = target: the molecule itself; assay: SEC-MALS; peroxide titration: pre-reduced PRX2 (100 µM), pH 7.4, 100 µM H2O2 (1 equivalence, fully oxidized)
[3] = target: the molecule itself; assay: SEC-MALS; oxidized samples (1.2 equivalents of H2O2), 2 mg/mL PRX, 50 mM HEPES, 100 mM NaCl, pH 8.0; (do)decamer against dimers
[4] = target: the molecule itself; assay: SEC-MALS; reduced samples (10 mM DTT), 2 mg/mL (90–93 µM) PRX, 50 mM HEPES, 100 mM NaCl, pH 7.0, 7.5 or 8.0 (PRX3 only pH 7.5 and 8.0); TSK Gel 4000 SW column run without reducing agents; (do)decamer against dimers
[5] = target: the molecule itself; assay: SEC-MALS; peroxide titration: pre-reduced PRX3 (93 µM), DTT removed, pH 8.0, 0 H2O2 (fully reduced)
[6] = target: the molecule itself; assay: SEC-MALS; oxidized samples (1.2 equivalents of H2O2), 2 mg/mL PRX, 50 mM HEPES, 100 mM NaCl, pH 7.5; (do)decamer against dimers

B1: PRX2-T82E (enzyme, human, UniProt P32119 1-198, looked up)
chain: MASGNARIGKPAPDFKATAVVDGAFKEVKLSDYKGKYVVLFFYPLDFTFVCPTEIIAFSNRAEDFRKLGCEVLGVSVDSQFEHLAWINTPRKEGGLGPLNIPLLADVTRRLSEDYGVLKTDEGIAYRGLFIIDGKGVLRQITVNDLPVGRSVDEALRLVQAFQYTDEHGEVCPAGWKPGSDTIKPNVDDSKEYFSKHN
notes: peroxiredoxin 2 (PRX2), human, with T82E in the dimer-dimer interface; The methods call the N-terminal His-tag non-cleavable; also called engineered dimer of PRX2; dimeric version of PRX2
Q: How did the “stoichiometry N” value [1] turn out when B1 was run?
A: 2

B2: Wild-type human PRX2 (enzyme, UniProt P32119 1-198, looked up)
chain: MASGNARIGKPAPDFKATAVVDGAFKEVKLSDYKGKYVVLFFYPLDFTFVCPTEIIAFSNRAEDFRKLGCEVLGVSVDSQFTHLAWINTPRKEGGLGPLNIPLLADVTRRLSEDYGVLKTDEGIAYRGLFIIDGKGVLRQITVNDLPVGRSVDEALRLVQAFQYTDEHGEVCPAGWKPGSDTIKPNVDDSKEYFSKHN
notes: peroxiredoxin 2 (PRX2), human, wild type, untagged, no extra residues; Tested reduced (DTT) and oxidised to the disulfide (H2O2); also called peroxiredoxin 2; WT PRX2
Q: Which “stoichiometry N” value [2] does the source give for B2 here?
A: 10

Q: And the “stoichiometry N” value [3]?
A: 2

B3: Wild-type human PRX1 (enzyme, UniProt Q06830 1-199, looked up)
chain: MSSGNAKIGHPAPNFKATAVMPDGQFKDISLSDYKGKYVVFFFYPLDFTFVCPTEIIAFSDRAEEFKKLNCQVIGASVDSHFCHLAWVNTPKKQGGLGPMNIPLVSDPKRTIAQDYGVLKADEGISFRGLFIIDDKGILRQITVNDLPVGRSVDETLRLVQAFQFTDKHGEVCPAGWKPGSDTIKPDVQKSKEYFSKQK
notes: peroxiredoxin 1 (PRX1), human, wild type, untagged, no extra residues; Tested reduced (DTT) and oxidised to the disulfide (H2O2); also called peroxiredoxin 1; WT PRX1
Q: Which “stoichiometry N” value [4] does the source give for B3 here?
A: 10

B4: PRX1 C83E (enzyme, human, UniProt Q06830 1-199, looked up)
chain: MSSGNAKIGHPAPNFKATAVMPDGQFKDISLSDYKGKYVVFFFYPLDFTFVCPTEIIAFSDRAEEFKKLNCQVIGASVDSHFEHLAWVNTPKKQGGLGPMNIPLVSDPKRTIAQDYGVLKADEGISFRGLFIIDDKGILRQITVNDLPVGRSVDETLRLVQAFQFTDKHGEVCPAGWKPGSDTIKPDVQKSKEYFSKQK
notes: peroxiredoxin 1 (PRX1), human, with C83E in the dimer-dimer interface, untagged; also called engineered dimer of PRX1; dimeric version of PRX1
Q: Which “stoichiometry N” value [1] does the source give for B4 here?
A: 2

B5: Untagged wild-type PRX3 (residues 62–256) (enzyme, human, UniProt P30048 62-256, looked up)
chain: APAVTQHAPYFKGTAVVNGEFKDLSLDDFKGKYLVLFFYPLDFTFVCPTEIVAFSDKANEFHDVNCEVVAVSVDSHFSHLAWINTPRKNGGLGHMNIALLSDLTKQISRDYGVLLEGSGLALRGLFIIDPNGVIKHLSVNDLPVGRSVEETLRLVKAFQYVETHGEVCPANWTPDSPTIKPSPAASKEYFQKVNQ
notes: peroxiredoxin 3 (PRX3), human, mitochondrial, residues 62–256, wild type, untagged; Stored oxidised to the disulfide (1.5 equivalents H2O2); tested reduced, partially oxidised and oxidised; also called peroxiredoxin 3; mitochondrial peroxiredoxin 3; not shown: Intein, N-terminal, cleaved
Q: Which results are given for B5?
A: stoichiometry N [5]: 12; stoichiometry N [6]: 2

B6: PRX3-S139E/A142E (enzyme, human, UniProt P30048 62-256, looked up)
chain: APAVTQHAPYFKGTAVVNGEFKDLSLDDFKGKYLVLFFYPLDFTFVCPTEIVAFSDKANEFHDVNCEVVAVSVDSHFEHLEWINTPRKNGGLGHMNIALLSDLTKQISRDYGVLLEGSGLALRGLFIIDPNGVIKHLSVNDLPVGRSVEETLRLVKAFQYVETHGEVCPANWTPDSPTIKPSPAASKEYFQKVNQ
notes: peroxiredoxin 3 (PRX3), human, with S139E and A142E in the dimer-dimer interface; The wild-type construct is residues 62–256; The methods call the N-terminal His-tag non-cleavable; also called engineered dimer of PRX3; PRX3 EE
Q: Which “stoichiometry N” value [1] does the source give for B6 here?
A: 2
